These results are taken from IntAct's records for PubMed 16888622.

First the molecules themselves.
B1: TATA-box-binding protein (Saccharomyces cerevisiae), P13393 (parent)
chain: MADEERLKEFKEANKIVFDPNTRQVWENQNRDGTKPATTFQSEEDIKRAAPESEKDTSATSGIVPTLQNIVATVTLGCRLDLKTVALHARNAEYNPKRFAAVIMRIREPKTTALIFASGKMVVTGAKSEDDSKLASRKYARIIQKIGFAAKFTDFKIQNIVGSCDVKFPIRLEGLAFSHGTFSSYEPELFPGLIYRMVKPKIVLLIFVSGKIVLTGAKQREEIYQAFEAIYPVLSEFRKM
partner: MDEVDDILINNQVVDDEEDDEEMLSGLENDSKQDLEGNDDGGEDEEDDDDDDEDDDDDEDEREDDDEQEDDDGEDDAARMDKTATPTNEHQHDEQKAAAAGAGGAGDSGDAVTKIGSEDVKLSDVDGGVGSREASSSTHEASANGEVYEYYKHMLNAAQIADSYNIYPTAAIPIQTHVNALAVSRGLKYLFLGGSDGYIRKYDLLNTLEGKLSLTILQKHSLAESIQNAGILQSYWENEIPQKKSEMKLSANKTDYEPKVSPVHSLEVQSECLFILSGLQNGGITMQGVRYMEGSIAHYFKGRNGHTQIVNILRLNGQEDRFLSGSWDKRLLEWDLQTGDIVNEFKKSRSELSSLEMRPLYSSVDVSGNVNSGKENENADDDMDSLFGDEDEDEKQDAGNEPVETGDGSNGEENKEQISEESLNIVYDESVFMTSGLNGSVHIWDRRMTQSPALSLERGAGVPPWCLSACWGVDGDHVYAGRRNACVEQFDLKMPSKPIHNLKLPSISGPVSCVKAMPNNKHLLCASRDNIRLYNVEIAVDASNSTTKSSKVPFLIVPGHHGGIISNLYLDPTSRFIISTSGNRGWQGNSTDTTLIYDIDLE

The variants in the assay derive from B1. To be noted: with spt8_yeast SPT8, P38915.
As for MADEERLKEFKEANKIVFDPNTRQVWENQNRDGTKPATTFQSEEDIKRAAPESEKDTSATSGIVPTLQNIVATVTLGCRLDLKTVALHARNAEYNPKRFAAVIMRIREPKTTALIFASGKMVVTGAKSEDDSKLASRKYARIIQKIGFAAKFTDFKIQNIVGSCDVKFPIELEGLAFSHGTFSSYEPELFPGLIYRMVKPKIVLLIFVSGKIVLTGAKQREEIYQAFEAIYPVLSEFRKM [R171E], the “effect of a mutation on the interaction” value is listed as “disrupting interaction”.
